The target in assay [1] is T1, KRAS (short peptide without mutation) peptide on HLA-A*11:01 (human).
T1 peptide: VVGAGGVGK
In words: cytokine release.

Assay [2] deals with T2, KRAS G12D peptide on HLA-A*11:01 (human).
T2 peptide: VVVGADGVGK
The experiment in a line: cytokine release.

Assay [3] addresses T3, other antigen short peptide (source not named) peptide on HLA-A*11:01 (human).
T3 peptide: SSCSSCPLSK
The experiment in a line: cytokine release.

Assay [4] concerns the target T4, KRAS G12V peptide on HLA-A*11:01 (human).
T4 peptide: VVVGAVGVGK
In words: cytokine release.

Assay [5] deals with T5, KRAS (short peptide without mutation) peptide on HLA-A*11:01 (human).
T5 peptide: VVVGAGGVGK
The experiment in a line: cytokine release.

Assay [6] concerns the target T6, KRAS G12D peptide on HLA-A*11:01 (human).
T6 peptide: VVGADGVGK
The experiment in a line: cytokine release.

For assay [7], the target named is T7, KRAS G12V peptide on HLA-A*11:01 (human).
T7 peptide: VVGAVGVGK
The experiment in a line: Kd or kinetics.

Consider two molecules from patent publication US20230159613A1 (published 2023).

B1: KRAS G12V antigen short peptide-specific TCR of SEQ ID NOs 1 and 5 (TCR, V domains shown)
Valpha: QKEVEQNSGPLSVPEGAIASLNCTYSDRVSQSFFWYRQYSGKSPELIMSIYSNGDKEDGRFTAQLNKASQYVSLLIRDSQPSDSATYLCASLKGNNDMRFGAGTRLTVKP
Vbeta: GAGVSQSPRYKVAKRGQDVALRCDPISGHVSLFWYQQALGQGPEFLTYFQNEAQLDKSGLPSDRFFAERPEGSVSTLKIQRTQQEDSAVYLCASSSSRWEQQFFGPGTRLTVL
On to B1, for which the binding result is reported as “no recognition” in assay [1]; “no recognition” in assay [2]; “no recognition” in assay [3]; “recognises” in assay [4]; “no recognition” in assay [5]; “no recognition” in assay [6]. The binding result in assay [7] is on record as “recognises”.

B2: KRAS G12V antigen short peptide-specific soluble single chain TCR of SEQ ID NO 30 (TCR, V domains shown)
Valpha: QKEVEQNSGPLSVPEGENVSINCTYSDRVSQSFFWYRQYSGKSPELIMSIYSNGDKEDGRFTAQLNKASQYVSLEIRDVQPSDSATYLCASLKGNNDMRFGAGTRLTVKP
Vbeta: GAGVSQSPRYLSVKRGQDVTLRCDPISGHVSLFWYQQAPGQGPEFLTYFQNEAQLDKSGLPSDRFNAERPEGSVSTLKIQRVQPEDSAVYLCASSSSRWEQQFFGPGTRLTVD
As to B2, the binding result in assay [7] is “recognises”.
